Experiments:
[1] = molecular target: T1, human Dll1 (human, UniProt O00548 18-723); test: FACS, 15 µg/ml, 293T cells with human Dll1
T1 construct: whole, on cells
T1 sequence (looked up): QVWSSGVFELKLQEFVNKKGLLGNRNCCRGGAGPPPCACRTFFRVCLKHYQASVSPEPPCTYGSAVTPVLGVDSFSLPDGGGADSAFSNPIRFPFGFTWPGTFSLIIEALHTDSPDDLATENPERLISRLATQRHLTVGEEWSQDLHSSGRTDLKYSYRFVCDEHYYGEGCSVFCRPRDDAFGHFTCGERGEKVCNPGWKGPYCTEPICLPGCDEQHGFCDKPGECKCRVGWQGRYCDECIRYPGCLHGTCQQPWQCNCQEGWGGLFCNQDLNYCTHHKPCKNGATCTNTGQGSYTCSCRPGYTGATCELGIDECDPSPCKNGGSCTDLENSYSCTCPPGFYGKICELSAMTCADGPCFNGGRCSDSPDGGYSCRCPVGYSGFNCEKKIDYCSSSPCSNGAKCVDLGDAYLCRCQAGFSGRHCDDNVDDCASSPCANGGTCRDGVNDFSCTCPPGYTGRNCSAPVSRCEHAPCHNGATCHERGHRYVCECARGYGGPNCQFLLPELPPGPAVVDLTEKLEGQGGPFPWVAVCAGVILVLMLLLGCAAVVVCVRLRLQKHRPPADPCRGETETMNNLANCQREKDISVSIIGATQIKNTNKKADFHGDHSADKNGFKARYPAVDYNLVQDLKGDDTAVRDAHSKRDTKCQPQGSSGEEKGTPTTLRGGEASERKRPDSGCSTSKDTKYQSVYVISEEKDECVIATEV
Experimental: (§1) The ability of the purified antibodies to bind to human Jagged1 and Dll1 was determined by FACS analysis. […] Cells were resuspended in PBS containing 2% FCS and seeded at 50000 cells/well into V-bottomed plates. Anti-DLL4 antibodies diluted in PBS containing 2% FCS were added at a final concentration of 5 or 15 μg/ml and plates were incubated for 1 h at 4° C. […] Data was analyzed by comparing the shift in geometric mean fluorescence in the mock-transfected cells to that observed in the Jagged1- or Dll1-transfected cells and is shown in Tables 16 and 17.

[2] = molecular target: T2, full length human DLL4 (human, UniProt Q9NR61 27-685); test: FMAT competition, purified antibody vs Alexa-647 human Notch1/Fc, 293T cells with human DLL4
T2 construct: whole, on cells; also called native DLL4 expressed in HEK293 cells
T2 sequence (Q9NR61 27-685): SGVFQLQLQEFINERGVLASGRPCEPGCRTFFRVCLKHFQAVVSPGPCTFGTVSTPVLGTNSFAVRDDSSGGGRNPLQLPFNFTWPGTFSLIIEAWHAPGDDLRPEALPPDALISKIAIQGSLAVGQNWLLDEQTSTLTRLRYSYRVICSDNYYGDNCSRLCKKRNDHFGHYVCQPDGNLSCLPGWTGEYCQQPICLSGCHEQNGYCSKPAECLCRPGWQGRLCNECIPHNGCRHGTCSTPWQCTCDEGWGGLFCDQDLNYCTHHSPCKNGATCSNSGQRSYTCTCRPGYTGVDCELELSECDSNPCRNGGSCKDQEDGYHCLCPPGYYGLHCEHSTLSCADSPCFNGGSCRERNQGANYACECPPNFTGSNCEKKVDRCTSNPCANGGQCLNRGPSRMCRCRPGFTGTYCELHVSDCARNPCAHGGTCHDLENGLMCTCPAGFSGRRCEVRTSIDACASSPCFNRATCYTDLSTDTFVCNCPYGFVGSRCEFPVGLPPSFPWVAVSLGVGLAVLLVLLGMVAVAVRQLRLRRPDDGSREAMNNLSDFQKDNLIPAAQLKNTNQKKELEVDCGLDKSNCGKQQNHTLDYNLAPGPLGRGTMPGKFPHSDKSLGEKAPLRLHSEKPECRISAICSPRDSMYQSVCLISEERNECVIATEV
Experimental: To discriminate between the purified antibodies based upon their ability to prevent the interaction between full-length recombinant DLL4 and soluble Notch1/Fc, the following assays were performed. Transfected and untransfected 239T cells were reconstituted in PBS containing 2% FCS and 5000 transfected and 17500 non-transfected cells were plated in 30 μl into wells of a 384-well tissue culture plate (Corning Costar, catalog #3712). Subsequently, 30 μl of purified antibodies, serial diluted from 5 μg/ml hybridoma supernatant was added and plates were incubated at 4° C. for 1 h, at which time 20 μl of 100 ng/ml Alexa-647 labeled human Notch1/Fc was added. After a further 3 h incubation at 4° C., the amount of bound Notch1/Fc was determined by reading the fluorescence in each well using an FMAT 8200 instrument (Applied Biosystems).

[3] = molecular target: T2, full length human DLL4; test: FMAT competition, supernatant vs Alexa-647 human Notch1/Fc, 293T cells with human DLL4
Experimental: Transfected and untransfected 239T cells were reconstituted in PBS containing 2% FCS and 5000 transfected and 17500 non-transfected cells were plated in 20 μl into wells of a 384-well tissue culture plate (Corning Costar, catalog #3712). Subsequently, 20 μl of hybridoma supernatant was added and plates were incubated at 4° C. for 1 h, at which time 20 μl of Alexa-647 labeled human Notch1/Fc was added at a final concentration of 6.7 ng/ml. After a further 3 h incubation at 4° C., the amount of bound Notch1/Fc was determined by reading the fluorescence in each well using an FMAT 8200 instrument (Applied Biosystems). Results are expressed as % inhibitions with the minimum inhibition in the assay being determined by the effects of non-DLL4 binding supernatants prepared in a similar way as described in example 2, and the maximum inhibition being defined as the signal obtained in the presence of a saturating concentration of unlabeled Notch1/Fc. N.T.=not tested

[4] = molecular target: T1, human Dll1; test: FACS, 15 µg/ml, 293T cells with human Dll1 vs mock
Experimental: as §1

[5] = molecular target: T2, full length human DLL4; test: FMAT, hybridoma supernatant, 293T cells with human DLL4
Experimental: (§2) Cells diluted in PBS containing 2% FBS were seeded at a density of 3000 expressing and 15000 mock transfected cells per well in 384 well plates (Corning Costar, catalog #3712). Immediately after plating, 15 or 20 μl/well of hybridoma supernatants and 10 μl/well of secondary antibody (Goat anti-human IgG Fc Cy5, final concentration 750 ng/ml) were added and plates incubated for 3 h at room temperature prior to reading the fluorescence on the FMAT 8200 instrument (Applied Biosystems). The binding of human Notch1/Fc chimera (R&D systems, catalog #3647-TK), diluted 1:2 from 2.86 μg/ml was used as a positive control for DLL4 and human Notch3/Fc chimera diluted from 10 μg/ml was used a positive control for binding to Jagged1. Results for 12 hybridoma supernatants showing binding of hybridoma supernatants to human/cynomolgus monkey DLL4 and human Jagged are shown in Table 3.

[6] = molecular target: DLL4 extracellular domain (R&D systems, catalog #1506-D4/CF) (UniProt Q9NR61 27-529, limits assumed); test: cell-based or functional assay
Sequence of DLL4 extracellular domain (R&D systems, catalog #1506-D4/CF) (Q9NR61 27-529 limits assumed): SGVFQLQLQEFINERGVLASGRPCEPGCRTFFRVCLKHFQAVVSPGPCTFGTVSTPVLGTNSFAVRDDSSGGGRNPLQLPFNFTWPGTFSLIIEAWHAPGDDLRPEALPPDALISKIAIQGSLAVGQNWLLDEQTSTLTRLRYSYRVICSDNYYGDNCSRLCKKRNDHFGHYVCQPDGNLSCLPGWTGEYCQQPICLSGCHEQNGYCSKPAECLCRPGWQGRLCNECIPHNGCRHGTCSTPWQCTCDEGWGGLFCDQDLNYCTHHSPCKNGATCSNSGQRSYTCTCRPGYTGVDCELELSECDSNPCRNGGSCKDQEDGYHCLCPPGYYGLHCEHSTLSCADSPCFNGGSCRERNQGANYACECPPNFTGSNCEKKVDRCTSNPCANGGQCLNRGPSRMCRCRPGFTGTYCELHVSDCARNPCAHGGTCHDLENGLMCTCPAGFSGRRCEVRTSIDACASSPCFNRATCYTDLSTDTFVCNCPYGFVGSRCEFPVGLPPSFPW

[7] = molecular target: T3, human Jagged1 (human, UniProt P78504 34-1218); test: FACS, 5 µg/ml, 293T cells with human Jagged1
T3 construct: whole, on cells
T3 sequence (P78504 34-1218): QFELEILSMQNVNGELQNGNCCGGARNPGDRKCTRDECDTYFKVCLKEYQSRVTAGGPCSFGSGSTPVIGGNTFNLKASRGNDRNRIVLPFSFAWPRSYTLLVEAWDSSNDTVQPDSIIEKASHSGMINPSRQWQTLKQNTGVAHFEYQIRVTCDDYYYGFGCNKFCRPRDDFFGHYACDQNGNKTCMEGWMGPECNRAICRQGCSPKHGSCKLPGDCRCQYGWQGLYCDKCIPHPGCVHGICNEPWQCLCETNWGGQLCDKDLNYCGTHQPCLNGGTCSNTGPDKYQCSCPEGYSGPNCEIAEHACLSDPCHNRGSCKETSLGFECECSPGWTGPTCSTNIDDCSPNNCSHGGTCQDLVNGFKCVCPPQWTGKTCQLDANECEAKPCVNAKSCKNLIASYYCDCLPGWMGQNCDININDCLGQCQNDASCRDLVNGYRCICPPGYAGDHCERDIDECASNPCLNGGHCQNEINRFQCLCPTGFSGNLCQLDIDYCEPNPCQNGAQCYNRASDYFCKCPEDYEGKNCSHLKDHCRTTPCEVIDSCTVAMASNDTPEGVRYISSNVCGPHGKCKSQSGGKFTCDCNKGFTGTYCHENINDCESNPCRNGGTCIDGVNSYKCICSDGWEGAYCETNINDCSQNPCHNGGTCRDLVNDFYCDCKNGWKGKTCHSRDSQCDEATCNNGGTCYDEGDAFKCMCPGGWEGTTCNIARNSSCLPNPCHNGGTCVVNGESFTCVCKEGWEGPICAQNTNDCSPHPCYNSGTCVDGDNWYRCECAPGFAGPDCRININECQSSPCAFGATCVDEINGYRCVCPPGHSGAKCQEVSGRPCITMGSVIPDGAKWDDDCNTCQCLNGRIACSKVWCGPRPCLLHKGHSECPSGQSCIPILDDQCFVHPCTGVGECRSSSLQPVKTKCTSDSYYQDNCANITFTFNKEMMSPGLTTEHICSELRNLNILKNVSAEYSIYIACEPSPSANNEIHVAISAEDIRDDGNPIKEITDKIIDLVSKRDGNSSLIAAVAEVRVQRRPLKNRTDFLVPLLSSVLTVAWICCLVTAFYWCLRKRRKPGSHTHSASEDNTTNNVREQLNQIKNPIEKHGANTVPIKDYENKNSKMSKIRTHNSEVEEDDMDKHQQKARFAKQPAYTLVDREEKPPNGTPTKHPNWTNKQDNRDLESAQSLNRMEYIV
Experimental: as §1

[8] = molecular target: T3, human Jagged1; test: FMAT, hybridoma supernatant, 293T cells with human Jagged1
Experimental: as §2

[9] = molecular target: T3, human Jagged1; test: FACS, 5 µg/ml, 293T cells with human Jagged1 vs mock
Experimental: as §1

B1: 1E4 (antibody, IgG2, V domains shown)
VH: QVQLVESGGGVVQPGRSLRLSCAASGFTFSSYGMHWVRQAPGKGLEWVAVTWYDGSNKYYADSVKGRFTISRDNSKNTLYLQMNSLRAEDTAVYYCARENCSSTSCYYTVTTDYYGMDVWGQGTTVTVSS
VL: EIVLTQSPGTLSLSPGERATLSCRASQRVSSSYLTWYQQKPGQAPRLLIYGASIRATGIPDRFSGSGSGTDFTLTITRLEPEDFAVYFCQQCYTSPITFGQGTRLDIK
notes: Fully human; also used where no isotype is printed
Dll1/293T X Geo mean [1]: 31.7
% inhibition at 0.020 nM [2]: -7%
% inhibition at 0.070 nM [2]: 24%
% inhibition at 0.21 nM [2]: 21%
% inhibition at 0.62 nM [2]: 46%
% inhibition at 1.9 nM [2]: 91%
% inhibition at 5.6 nM [2]: 129%
% inhibition at 16.7 nM [2]: 120%
IC50 [2]: 0.99 nM
% inhibition n = 1 [3]: 98%
% inhibition n = 2 [3]: 99%
% inhibition n = 3 [3]: 113%
Mean % inhibition [3]: 110%
Dll1/mock ratio [4]: 1.15
Count [5]: 206
FL1 [5]: 10400
FL1 x count [5]: 2.14e+06
% inhibition 1 µg/ml, AVERAGE (HUVEC proliferation on coated DLL4) [6]: 74%
% inhibition 1 µg/ml, N = 1 (HUVEC proliferation on coated DLL4) [6]: 73%
% inhibition 1 µg/ml, N = 2 (HUVEC proliferation on coated DLL4) [6]: 75%
% inhibition 10 µg/ml, AVERAGE (HUVEC proliferation on coated DLL4) [6]: 82%
% inhibition 10 µg/ml, N = 1 (HUVEC proliferation on coated DLL4) [6]: 81%
% inhibition 10 µg/ml, N = 2 (HUVEC proliferation on coated DLL4) [6]: 82%
Jagged1/293T X Geo mean [7]: 16.9
Count [8]: 2
FL1 [8]: 8020
FL1 x count [8]: 16000
Jagged1/mock ratio [9]: 1.13

B2: 3A7 (antibody, IgG4, V domains shown)
VH: EVQVVESGGGLVQPGGSLRLSCEASGFTFSNYWMIWVRQAPGKGLEWVASIKEDGSEKYYVDSVKGRFTISRDNAKSSLYLQMNSLRAEDTAVYYCVRDWELRGHYYYHGMDVWGQGTTVTVSS
VL: DIQMTQSPSSLSASVGDRVTITCRASLDIRNDLGWFLQKPGKAPKRLIYAASSLQSGVPSRFSGSGSGTEFTLTINSLQPEDFATYYCLQHRNYPFTFGPGTKVDFK
notes: as for B1
Dll1/293T X Geo mean [1]: 36.8
% inhibition at 0.020 nM [2]: -1%
% inhibition at 0.070 nM [2]: 7%
% inhibition at 0.21 nM [2]: -1%
% inhibition at 0.62 nM [2]: 19%
% inhibition at 1.9 nM [2]: 39%
% inhibition at 5.6 nM [2]: 82%
% inhibition at 16.7 nM [2]: 104%
IC50 [2]: 2.94 nM
% inhibition n = 1 [3]: 105%
% inhibition n = 2 [3]: 120%
% inhibition n = 3 [3]: 142%
Mean % inhibition [3]: 122%
Dll1/mock ratio [4]: 1.06
Count [5]: 166
FL1 [5]: 9470
FL1 x count [5]: 1.57e+06
% inhibition 1 µg/ml, AVERAGE (HUVEC proliferation on coated DLL4) [6]: 65%
% inhibition 1 µg/ml, N = 1 (HUVEC proliferation on coated DLL4) [6]: 50%
% inhibition 1 µg/ml, N = 2 (HUVEC proliferation on coated DLL4) [6]: 80%
% inhibition 10 µg/ml, AVERAGE (HUVEC proliferation on coated DLL4) [6]: 90%
% inhibition 10 µg/ml, N = 1 (HUVEC proliferation on coated DLL4) [6]: 74%
% inhibition 10 µg/ml, N = 2 (HUVEC proliferation on coated DLL4) [6]: 106%
Jagged1/293T X Geo mean [7]: 16.4
Count [8]: 1
FL1 [8]: 1940
FL1 x count [8]: 1940
Jagged1/mock ratio [9]: 1.1

B3: 4B3 (antibody, IgG4, V domains shown)
VH: QVQLVQSGAEVRKSGASVKVSCKASGYSFTTYDINWVRQATGQGLEWMGWMNPNSGYTDYAQKFQGRVTLTRNMSIDTAYMELSSLRSEDTAVYYCARAYYYDSSAYYLFDYWGQGTLVTVSS
VL: DIQMTQSPSSLSASVGDRVTITCRASQGISNYLAWFQQKPGKAPKSLIYAASSLQSGVPSKFSGSGSGTDFTLTISSLQPEDFATYFCQQYISYPLTFGGGTKVEI
notes: as for B1
Dll1/293T X Geo mean [1]: 30.6
% inhibition at 0.020 nM [2]: -1%
% inhibition at 0.070 nM [2]: 5%
% inhibition at 0.21 nM [2]: -3%
% inhibition at 0.62 nM [2]: 20%
% inhibition at 1.9 nM [2]: 40%
% inhibition at 5.6 nM [2]: 89%
% inhibition at 16.7 nM [2]: 117%
IC50 [2]: 3.33 nM
% inhibition n = 1 [3]: 106%
% inhibition n = 2 [3]: 145%
% inhibition n = 3 [3]: 147%
Mean % inhibition [3]: 133%
Dll1/mock ratio [4]: 1.17
Count [5]: 206
FL1 [5]: 11000
FL1 x count [5]: 2.27e+06
% inhibition 1 µg/ml, AVERAGE (HUVEC proliferation on coated DLL4) [6]: 31%
% inhibition 1 µg/ml, N = 1 (HUVEC proliferation on coated DLL4) [6]: 20%
% inhibition 1 µg/ml, N = 2 (HUVEC proliferation on coated DLL4) [6]: 41%
% inhibition 10 µg/ml, AVERAGE (HUVEC proliferation on coated DLL4) [6]: 44%
% inhibition 10 µg/ml, N = 1 (HUVEC proliferation on coated DLL4) [6]: 38%
% inhibition 10 µg/ml, N = 2 (HUVEC proliferation on coated DLL4) [6]: 49%
Jagged1/293T X Geo mean [7]: 18.7
Count [8]: 2
FL1 [8]: 4720
FL1 x count [8]: 9450
Jagged1/mock ratio [9]: 1.04

B4: 12A1 (antibody, IgG4, V domains shown)
VH: QVQLVQSGAEVKRPGASVKVSCKASGYTFTSYGITWVRQAPGQGLEYMGWISTYNGNTDYAQKFQGRVTMTADISTSTAYMELRSLRSDDTAVYYCARERGSYFDYWGQGTLVTVSS
VL: SYELTQPPSVSVSPGQTARITCSGDTLPKKYAYWYQQKSGQAPVLVIYEDIKRPSGIPERFSGSSSGTMATLTISGAQVEDEADYYCFSTDSGGNHKFGGGTKLTVL
notes: as for B1
Dll1/293T X Geo mean [1]: 47
% inhibition at 0.020 nM [2]: 6%
% inhibition at 0.070 nM [2]: -18%
% inhibition at 0.21 nM [2]: 9%
% inhibition at 0.62 nM [2]: 15%
% inhibition at 1.9 nM [2]: 88%
% inhibition at 5.6 nM [2]: 119%
% inhibition at 16.7 nM [2]: 101%
IC50 [2]: 1.48 nM
% inhibition n = 1 [3]: 103%
% inhibition n = 2 [3]: 147%
% inhibition n = 3 [3]: 144%
Mean % inhibition [3]: 131%
Dll1/mock ratio [4]: 1.12
Count [5]: 179
FL1 [5]: 9520
FL1 x count [5]: 1.76e+06
% inhibition 1 µg/ml, AVERAGE (HUVEC proliferation on coated DLL4) [6]: 56%
% inhibition 1 µg/ml, N = 1 (HUVEC proliferation on coated DLL4) [6]: 50%
% inhibition 1 µg/ml, N = 2 (HUVEC proliferation on coated DLL4) [6]: 62%
% inhibition 10 µg/ml, AVERAGE (HUVEC proliferation on coated DLL4) [6]: 74%
% inhibition 10 µg/ml, N = 1 (HUVEC proliferation on coated DLL4) [6]: 62%
% inhibition 10 µg/ml, N = 2 (HUVEC proliferation on coated DLL4) [6]: 85%
Jagged1/293T X Geo mean [7]: 14.4
Count [8]: 25
FL1 [8]: 988
FL1 x count [8]: 24700
Jagged1/mock ratio [9]: 1.11

Reference: patent publication US20100196385A1 (AstraZeneca / MedImmune, published 2010)
